The values that follow come from PMC4330383.

One may read the stoichiometry N as a count of units in the complex or per binding partner.

The target of assay [1] is histones H3-H4 (full-length, recombinant Drosophila melanogaster) (Drosophila melanogaster) (UniProt P02299). The assay can be described thus: SEC-MALS; Superdex 200 10/300 GL Increase, 50 mM Tris pH 8.0, 0.5 M NaCl, 20°C.
Assay [2] has the same target. Description: SEC-MALS; Superdex 200 10/300 GL Increase, 50 mM Tris pH 8.0, 1.5 M NaCl; for H3-H4 alone: tetramer of two H3-H4 dimers.

Sequence of ASF1a (1–156) (Q9Y294 1-156): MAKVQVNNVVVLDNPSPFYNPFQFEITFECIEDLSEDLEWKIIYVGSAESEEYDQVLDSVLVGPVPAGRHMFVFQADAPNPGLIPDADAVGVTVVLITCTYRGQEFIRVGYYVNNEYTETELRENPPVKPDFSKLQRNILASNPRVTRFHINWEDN

As to “ASF1a (1–156) (from UniProt Q9Y294 1-156) (domain or fragment; other documents disagree on this pair)”, the stoichiometry N (ASF1 per H3-H4 dimer (ratio H3:H4:ASF1)) in assay [1] and in assay [2] was 1 in each case.

In the case of “histones H3-H4 (full-length, recombinant Drosophila melanogaster) (from UniProt P02299 1-136; P84040 1-103) (complex)”, in assay [2] (scale: H3-H4 dimers in the oligomer), the stoichiometry N worked out at 2.
